Test [1] addresses T1, SARS-CoV-2 RBD-Fc fusion protein (residues 331-524 of SARS-CoV-2 S protein with a C-terminal Fc of human IgG1) (SARS-CoV-2; human).
T1 construct: also called SARS-CoV-2 RBD protein; SARS-CoV-2 RBD-Fc protein
As to the kind of experiment: flow cytometry on hDPP4/293T cells. (Flow cytometry measures light scatter and fluorescence of single cells or particles in a stream.)

Test [2] addresses T1, SARS-CoV-2 RBD-Fc fusion protein …. As to the kind of experiment: ELISA, RBD-Fc coated at 1 µg/ml, sDPP4 serially diluted.

B1: human DPP4 (hDPP4) receptor expressed on 293T cells (receptor)
chain: MKTPWKVLLGLLGAAALVTIITVPVVLLNKGTDDATADSRKTYTLTDYLKNTYRLKLYSLRWISDHEYLYKQENNILVFNAEYGNSSVFLENSTFDEFGHSINDYSISPDGQFILLEYNYVKQWRHSYTASYDIYDLNKRQLITEERIPNNTQWVTWSPVGHKLAYVWNNDIYVKIEPNLPSYRITWTGKEDIIYNGITDWVYEEEVFSAYSALWWSPNGTFLAYAQFNDTEVPLIEYSFYSDESLQYPKTVRVPYPKAGAVNPTVKFFVVNTDSLSSVTNATSIQITAPASMLIGDHYLCDVTWATQERISLQWLRRIQNYSVMDICDYDESSGRWNCLVARQHIEMSTTGWVGRFRPSEPHFTLDGNSFYKIISNEEGYRHICYFQIDKKDCTFITKGTWEVIGIEALTSDYLYYISNEYKGMPGGRNLYKIQLSDYTKVTCLSCELNPERCQYYSVSFSKEAKYYQLRCSGPGLPLYTLHSSVNDKGLRVLEDNSALDKMLQNVQMPSKKLDFIILNETKFWYQMILPPHFDKSKKYPLLLDVYAGPCSQKADTVFRLNWATYLASTENIIVASFDGRGSGYQGDKIMHAINRRLGTFEVEDQIEAARQFSKMGFVDNKRIAIWGWSYGGYVTSMVLGSGSGVFKCGIAVAPVSRWEYYDSVYTERYMGLPTPEDNLDHYRNSTVMSRAENFKQVEYLLIHGTADDNVHFQQSAQISKALVDVGVDFQAMWYTDEDHGIASSTAHQHIYTHMSHFIKQCFSLP
notes: whole, on cells
Turning to B1, the binding result in test [1] is on record as “no binding (tested: 20 µg/ml)”.

B2: soluble human DPP4 (sDPP4) receptor (receptor)
chain: SRKTYTLTDYLKNTYRLKLYSLRWISDHEYLYKQENNILVFNAEYGNSSVFLENSTFDEFGHSINDYSISPDGQFILLEYNYVKQWRHSYTASYDIYDLNKRQLITEERIPNNTQWVTWSPVGHKLAYVWNNDIYVKIEPNLPSYRITWTGKEDIIYNGITDWVYEEEVFSAYSALWWSPNGTFLAYAQFNDTEVPLIEYSFYSDESLQYPKTVRVPYPKAGAVNPTVKFFVVNTDSLSSVTNATSIQITAPASMLIGDHYLCDVTWATQERISLQWLRRIQNYSVMDICDYDESSGRWNCLVARQHIEMSTTGWVGRFRPSEPHFTLDGNSFYKIISNEEGYRHICYFQIDKKDCTFITKGTWEVIGIEALTSDYLYYISNEYKGMPGGRNLYKIQLSDYTKVTCLSCELNPERCQYYSVSFSKEAKYYQLRCSGPGLPLYTLHSSVNDKGLRVLEDNSALDKMLQNVQMPSKKLDFIILNETKFWYQMILPPHFDKSKKYPLLLDVYAGPCSQKADTVFRLNWATYLASTENIIVASFDGRGSGYQGDKIMHAINRRLGTFEVEDQIEAARQFSKMGFVDNKRIAIWGWSYGGYVTSMVLGSGSGVFKCGIAVAPVSRWEYYDSVYTERYMGLPTPEDNLDHYRNSTVMSRAENFKQVEYLLIHGTADDNVHFQQSAQISKALVDVGVDFQAMWYTDEDHGIASSTAHQHIYTHMSHFIKQCFSLP
notes: also called hDPP4 in solution
B2: the binding result in test [2] is reported as “no binding”.
